# The nanobody polyreactivity screen of Harvey et al. (2022)
# Experiment: yeast display, Sf9 membrane polyspecificity reagent, FACS + sequencing; frameworks hold sequencing errors
# Procedure, shortened: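 A synthetic nanobody library was expressed on Saccharomyces cerevisiae BJ5465 by galactose induction for 36–48 hours. The library was stained for 1 hour at 4 °C with 10% biotinylated, detergent-solubilized Sf9 membrane reagent and enriched with streptavidin microbeads before FACS. Low and high (top ~1%) gates were set on anti-HA fluorescence for expression and streptavidin fluorescence for reagent binding, and each polyreactivity label reflects the gate of origin.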
row,Sequence,polyreactivity (PSR sort gate)
1,QVQLVESGGGLVQAGGSLRLSCAASRRTFNGNAMGWYRQAPGKETELVATITSSAGTTYYADSVKGRFTISRDNAKNTVYLQMNSLKPEDTAVYYCAKRIWRSYPYRPYYSEFGYWGQGTQVTVSS,high polyreactivity
2,QVQLVESGGGLVQAGGSLRLSCAASGSTFLRYAMGWYRQAPGKERELVAAISVSGGSTYYADSVKGRFTISRDNAKNTVYLQMNSLKPEDTAVYYCNAVTKFHRRYNYWGQGTQVTVSS,high polyreactivity
3,QVQLVESGGGLVQAGGSLRLSCAASGRTFDRNAMGWYRQAPGKERELVAAITSRGGRTYYADSVKGRFTISRDNAKNTVYLQMNSLKPEDTAVYYCNAARGWGYDSWGQGTQVTVSS,high polyreactivity
4,QVQLVESVGGLVQAGGSLRLSCAASGSIFGFYAMGWYRQAPGKERELDAVISSDASKNYADSVKGRFTISRDNAKNTVYLQMKSLKPEDTAVYYCNAVAYGYHFFSYYSVDYWGQGTQVTVSS,low polyreactivity
5,QVQLVESGGGLVQAGGSLRLSCAASGIIFGIYDMGWSRQAPGKERELVAAIRRSGGSTYYADSVKGRFTISRDNAKNTVYLQMNSLKPEDTAVYYCAATRHSRVRGGDYWGQGTQVTVSS,low polyreactivity
6,QVQLVESWGGLVQAGGSLRLSCAASGSTSVYYAMGWYRQTPGKERELVDAITWDDGSTSYADSVKGRFTISRDNAKNTVYLQMNSLKPEDTEVYYCAKDYEYLGAFNYWGQGTQVTGSS,low polyreactivity
7,QVQLVESGGGLVQAGGSLRLSCAASGSTFFKNAMGWYRQAPGKESELVAGISYGGGRTYYADSVKGRFTISRDNAKNTVYLQMKSLKPEDTAVYYCNTVTSPAPYYSYDSWGQGTQVTVSS,high polyreactivity
8,QVQLVESGGGLVQAGGSLRLSCAAYGSTFNYKAMAWYRQAQGKERELVATITTSGGSTYYADSVKGRFTISRDNAKNTVYLQMNSLKPEDTAVYYCAARYPWSVYRIYGAHYDYWGQGTLVTVSS,low polyreactivity
9,QVQLVESGGGLVQAGGSLRLSCAASGSILYYAMGWYRQAPGKERELVATITRGGSTYYADSVKGRFTISRDNAKNTVYLQMNSLKPDDTAVYYCAARRAVRVGYYWHDISSYDYWGQGTQVTVPS,low polyreactivity
10,QVQLVESGRGLVQAGGSLRLSCAASGYTFSNYGMGWYRQAPGKERELVAGIILGGSSTYYADSVKGRFTISRDNAKNTVYLQMNSLKPEDTAVYYCAAYVTGRYDWGQGTQVTVSS,high polyreactivity
11,QVQLVESCGGLVQAGGSLRLSCAASGRTFFGYAMGGYRQAPGKERELVAAINWGGASTYYADSVKGRFTISRDNAKNTVYLQMNSLKPEETAVYYCAADSVPSRPTYGRYDYWGQGTQVTVSS,low polyreactivity
12,QVQLVESGGGLVQAGGSLRLSCAASGSTFIAYALGWYRQAPGKERELDAAITTGDSTNYADSVKGRFTISRDNAKNTVYLQMNSLKPEDTAVYYCNADGTDFHFLSEIGSSQEGDYWGQGTQVTVSS,low polyreactivity
13,QVQLEESGGGLVQAGGSLRLSCAASGSTFRANAMGWYRQAPGKERELVAAISSGDSTNYADSVKGRFTISRDNAKNTVYLQMNSLKPEDTAVYYCAAVYTYYWWGSYGFWGQGTQVTVSS,low polyreactivity
14,QVQLVESGGGLVQAGGSLRLSCAASGGTFSKYAMGWYRQAPGKEREFVAAITVSGGGTYYADSVKGRFTISRDNAKNTVYLQMNSLKPEDTAVYYCAADLGWTASDYWGQGTQVTVSS,low polyreactivity
15,QVQLVESGGGLVQAGGSLRLSCAASGSIIVYNTMGWYRQAPGKERGLVAAITVRDDSTYYADSVKGRFTISRDNAKNTVYLQMNSLKPEDTAVYYCNVRKTWYGYSVTGRYDYWGQGTEVTVSS,low polyreactivity
16,QVHLVESGGGLVQAGGSLRLSSAASGITFGWYAMGWYRQAPGKERELVAAIDRGGSTYYADSVKGRFTISRDNAKITVYLQMNSLKPEDTAVYYCAVELRLRYGYDYWGQGTEVTVSS,high polyreactivity
17,QVQLVESGGGLVQAGGSLRLSCAASGYIFQPYAMGWYRQAPGKERELVAAISWRGGSTYYADSVKGRFTISRDNAKNTVYLQMNSLKPEDTAVYYCAVDAWDTTHVYEQGAERDSWGQGTQVTVSS,low polyreactivity
18,QVQLVESGGGLVQAGGSLRLSCAASGRIFEVNVMGWYRQAPGKERELVAAITTGGGSTYYADSVKGRFTISRDNAKNTVYLQMNSLKPEDTAVYYCAAEPILIDEYWGQGTQVTVSS,low polyreactivity
19,QVQLVESGGGLVQAGGSLRLSCAASGSTFSYYAMGWYRQAPGKERELVASISSGGSTNYADSVKGRFTISRANAKNTVYLQMNSLKPEDSAVYYCKADSWTVNRRYYYYRYEYWGQGSQVTVSS,low polyreactivity
20,QVQLVESGGGLVQAGGSLRLSCAASGITFYEYAMGWYRQAPGKERELVASISGSGGSTFYADSVKGRFTISRDNAKNTVYLQMNSLKPEDTAVYYCAAYKEPYYEEYGYWGQGTQVTVSS,low polyreactivity
21,QDQLVESGGGLVQAGGSLRLSCAASGSTFAYYAMGWYRQAPGKERELVAAITIDGRTSYADSVKGRFTISRDNAKNTVYLQMISLNQVDTAVYYCARGYFPYGYPWRWGYDRFDYWGQGTQVTVSS,low polyreactivity

row,Sequence,polyreactivity (PSR sort gate)
1,EVQLVESGGGLVQAGGSLRLSCAASGTSFLLYAMGWYRQARGKERELLAAISSSGARTYYADSVKGRCTISRDNAKYTVYLQMNSLKPEDTAVYYCAASRRAYRSSYVSPFGYWGQGTQVTGSS,high polyreactivity
2,QVQLVESGGGLVQAGGSLRLSCAASGRIIYPNAIGWYRQAPGKERELVAGITSRGGSTYYADSVKGRFTSSRDNAKNTVYLQMNSLKPEDTAVYYCAKRYYYFYPDYDYWGQGTQVTVSS,high polyreactivity
3,QVQLVESGGGLVQAGGSLRLSCAASGSIFVKYAMGWYRQAPGKERELVAAISRRGGSTNYADSVKGRFTISRDNAKNTVYLQMNSLKPEDTAVYYCNAQTVTSYGGDSWGQGTQVTVSS,high polyreactivity
4,QVQLVESGGGLVQAGGSLRLSCAASGSTFEVYAMGWYRQAPGTERELVAVITNSGTSTNYADSVKGRFTISRDNAKNTVYLQMTSLKPEDTAVYYCAADVEWTSRGSYYRYYYWGQGTQVTVSS,low polyreactivity
5,QVQLVESGGGLVQAGGSLRLTCAASGHIFFYYTMGWYRQAPGKERELVARISSDGDTYYADSVKGRFTISRDNAKNTVYLQMNSLKPEDTAVYYCAAAVLYWVGYGYWGQGTQVTVSS,low polyreactivity
6,QVQLVESGGGLVHAGGSLRLSCAASGRTFAQNAMRRYRQAPWKERELVAAIRNGGRTNYADSVKGLFTISRDNAKNTVYLQMNSLKPEDTAVYYCAVKFNNRAKYGYWGQGTQVTVSS,high polyreactivity
7,QVQLEESGGGLVQAGGRLRLTCAASGFIFKLYAMGWYRQAPGKERELVAAISGNGGRTYYADSVKGRFTISRDNAKNTVYLQMNSLKPEDTAVDYCAARYVGVQRYYEFDYWGQGTQVTVSS,high polyreactivity
8,QVQLVESGGGLVQAGGSLRLSCAASGSIFNAYDMGWYRQAPGKERELVAGISSSDSTYYADSVKGRFTISRDNAKNTVYLQMNSLIPEDTAVYYCAADPVFAAAYIHLYGIYDSWGQGTQVTVSS,low polyreactivity
9,QVQLVESGGGLVQAGGSLRLSCAASGSTFGLYAMGWYRQAPGKERELVAAISYSGSSTYYADSVKGRFTISRDNAKNTVYLQMNSLKPEATAVYYCAARRSEHGYNYWGQGTQVSVSS,high polyreactivity
10,QVQLVESGGGLVQAGGSLRLSCAASGSTFRGYAMGWYRQAPGKERELVAAISWSGGSTYYADSVKGRFTISRDNAKNTVYLQMNSLKPEDTAVYYCNAVLYRFAYNYWGQGTQVTVSS,low polyreactivity
11,QVQLVESGGGLVQAGGSLRLSCAASGSTFQPYAMGWYREAPGKERELVATITWRGGRTYYADSVKGRFTISRDNAKYTVYLQMNSLKPEDTAVYYCNVAYRGFRYYYWGQGTQVNVSS,high polyreactivity
12,QVQLVESGGGLVQAGGSLRLSCAASGFTFRQNSIGWSRQAPGKERELVAAISRSGSRTYYADSVKGRFTISRDNAKNTVYLQMIRLKPEDTAVYYCKAVFSSFTVEYYWGQGTQVTVSS,high polyreactivity
13,QVQLVESGGGLVQAGGSLRLSCAASGSIFSFYAMGWYRQAPGKEREFVAAITISDDSTYYADSVKGRFTISRDNAKNTVYLQMNSLKPEDTAVYYCNARYLSWYFKYLYDYWGQGTQVTVSS,low polyreactivity
14,QVQLVESGGGLVQAGGSLRLSCAASGRLFGAYGMGWYRQAPRKERELVAAISNGGRTSYADSVKGRFTISRDNAKNTVYLQMNSLKPEDTAVYYCAAVYWPWYGAYDYWGQGTQVTVSS,high polyreactivity
15,QVQLVESGGGLVQAGGSLRLSCAASGATFGYYGMGWYRQAHGTERELVAAISTRGDSTYYADSVMGRFTISRDNAKNPVYLQMHSLKPEDPAGYYCAKSRQSSGRVRFDYWGQGTQVTVSS,low polyreactivity
16,QVQLVESGGGLVQAGGSLRLSCAASGRTFSYYAMGWYRQAPGKERSLVAAISWSGGRTYYADSVKGRFTISRDNAKNTVYLQMNSLKPEDTAVYYCAARYVYPYWYGDYYWGQGTQVTVSS,low polyreactivity
17,QVQLVESGGGLVQAGGSLRLSCAASGSIFSGYAMGWYRQAPGKERELVAAISGSGGSTFYADSVKGRFTISRDNAKNTVYLQMNSLKPEDTAVYYCAARRIAPYGRYDYWGQGTQVTVSS,low polyreactivity
18,QVQLQEIGGGLVQAGGSLRLSCAATGSIFVSVTMGWYRQAPGKERELVASIGRGSTTNHADSVKGRFTISRDNAKNIVYLLMNSLKPEDTAVYYCAALESYGKYHGYWGQGTQVTVSS,low polyreactivity
19,QVQLVESGGGLVQAGGSLRLSCAASGRIFRYYAMGWYRQAPGKERELVATISSSGGSTYYADSVKGRFTISRDNAKNTVYLQMNSLKPEDTAVYYCAADWYGYRQFHGYYWGQGTQVTVSS,high polyreactivity
20,QVQLVESGGGLVQAGGSLRLSCAASGYIFDYYAMGWYRQAPWKERELVAAISSSGGTTYYADSVKGRFTISRDNAKNTVYLQMNSLKPEDTAVYYCAARKSRWQRGYYYWGQGTQVTVSS,high polyreactivity
